experiment: soluble on expression in E. coli; label from the status in PepcDB or PDB records

Soluble on expression in E. coli, not soluble:
MGSDKIHHHHHHMRNLDITTLRSFVAVADTGGVTRAASFLHLTQSAVSMQLKRLEEMLGVELLDRSGRNIGLTSAGEQLLGFARKMLSLNDEIITRLTDQAFEGEVTLGVPHDVVHPVIPMVMQRFNVQFPRVKVNLCTSNTRDLKMDFAQGRFDLIVTTETTASEGGEVIHQMPLRWIGALGGQTWRQRPLRIGFCRNCIFRGLATAALDDAGIPWEMAVDSESDRTVEATVSADLAVGVLLEGTQPAHQQVIDHGGSLPQLPVQHINLYGAERSRAQYVDHLASLIRQGFAGLSQPGLRAVGTEMVSAPVQLGVV
MGSDKIHHHHHHMRNPDIGIDDLTALFIADTPLIDVRAPVEFTQGSLPGAVNLPILNDEERALVGTTYKQQGSEAAIKLGYEMVSGSVKQNRLQQWLDFIHQHPRAILYCFRGGKRSQITQQWLRDTGIDSPLITGGYKRARQFLISTIDRFSEHRKLLVITGPTGSGKTRLIHDISNSHPVLDIEALARHRGSAFGGMSVPQPSQIDFENHLAVNLLKLEQNNLSEPVIVEDESRHTGKVYLPDSFFHHLRNSEIIWVDEPLATRVDNIFEDYILTTPIGQAQRIRQAIPPLASTVETREILRQQARQLFDKYAGALQAISKKLGGDRFQEVSEDLENARSDFENKNEIQSNKIWIEKLVRYYYDPLYLGSLQRRRVNPCFKGSGQAVMDYLQARK
MGSDKIHHHHHHMRNPEVIVIGSGIGGLCCGGLLAKAGKRVLILEAHSKPGGAAHGFEKNGYKFESGPSLWSGIGSWPTTNPLGQVLKALNQKVDLIKYQDWNVQIPEGDYTIGVGDRRFLDQINSISGKDAMKEWENFIQVIKPIGAAANAIPLLALNQNKETVLQLLKRSKTLLTHLKSFKYLGGAFGNLVDDHLKDPFLRNWVELLCFLISGLSKDETNAAAMATLFDDWFNPDAYLEYPKGGSESIVKALLDGIYSFGGDLQLNSKVSQIIIKRNKAIGIELKNGERIFADHIVSNADIWNTIELIPKEISQKWRGKRSKTPKCKSFLHLHLGFNAEGLKDIPLHSIWVNDWSKGITAERNVVVLSIPSALDPTMSPPNKHILHGYTPANEPWERWEGLKIGSKEYERTKEERCSVFWEPIKKLVPDIEERIEVKMLGTPLTHQRFLNTKNGSYGPALSAAEGLFPGNKTPIKNLLLCGSSTFPGIGIPPVAASGAMAANTILGSKFQRDLIEELGL
MGSDKIHHHHHHMRNYCRWCENDPLLIAYHDKEWGQREGNDQRLFEAMCLELFQSGLSWKTVLQKRDSIRKAFHHFELEKVATMNEQDVERLLKDKGIIRHRKKIEATIQNSRNVVRLQREFGSFREWIESLPNDVEAKAAMISEMFTYMGPITAKSFLEATGFIPVEHDKQCHLFEGKSLQIKPIGTADRGEVQQFFHQHWGSPEMVLSTGVFHCERLPGFLYRNKLGEIIGLITYVTHGKRSIEIISLDSVEEGKGIGTSLLQAVEAEAIEQQVRQIEVITTNDNLHALGFYQKRGFQLKELVVNGVEKARQLKPSIPRKSADGIPIRDELKLVKTMR
MGSDKIHHHHHHMRPTAIGSVCTPFVCWSCVARHGNTHVCWSCSVASVPCVTRAPVSVPGGLAAVCRTWLRRKGDLMNQGRPGVHVRVFDARVGDRVVVEPKGVGDRFMSVFVGWDAGRYLIVKMPSNLALKDHLYPDKPVVLRYLHCTGEVHGCETTIETSVAVPHRLLFLRHPESVEAVSLRKDAWVNCSVPALLRHEAGNMAGYLLDVSRGGCKVAYFEEEGLPTLAAGTEVQCSFRLPGGEQPVEVGAVVRNVAGEGGRIVCGLEFRDAPEPVVAAIGAYVDAAAFLVGTSCADRVVR
MGSDKIHHHHHHMRRLFTSESVTEGHPDKIADQISDAILDAMLEQDPRSRVAVETLVTTGLVIIAGEVTTRAYVEIPDIARKTILEIGYTRAKYGFDGETCGVLTSIHSQSPDIALGVDKALEVKTGEEVADEFEALGAGDQGIMFGYATNETPEYMPLPITLAHKLAMRLAEVRKNGTLPFLRPDGKTQVTIEYEDDKPVRVDTVLISTQHDPDISQADLREAIIEHVINPVIPEQYRDDKMKILVNPTGRFVLGGPMADTGLTGRKIIVDTYGGWVPHGGGAFSGKDPTKVDRSAHYMARYVAKNVVAAGLADKFLIQLSYAIGVAKPVSIMIDTYGTAKVDEDKLLKVITELFDFRPGAIIKKLNLLRPIYRKTAAYGHFGRNEEEFTWEKLDMVDELKRAFNM
MGSDKIHHHHHHMRRLPPLNALQIFETVARHRSFTRAADHLCLTQGAVSRQIIALEDYYKFPLFKRHAKGLTLTAEGELLLPAVKESFARIEEISLRLTRQRTDLALKVPTCVMRWMLPKIMRFQAEYPELHVQITTTWQHDVDFQLEPFDAAIIYGSSPGADVQAVPLFEERLTPVCAPDLLKDKPLAELADLARHTLLHPTRDHRDWKMWLARVTEMGAANAPVIDAEHGPSFDTLDMATNAALQGFGVAISDLALIDEDVAAKRLVRPFDTVLKTGWRYYFVYPDSVAHQQKLNLFRDWIAAHWEE
MGSDKIHHHHHHMRRVISIFRKLSAVYCHTGNFAEGIRVCKYALGRFTEMEDKYKCIFTFNMSLYYNYLGEYGKALNAITGFESVIKATYEDRYYKVLLLKADCYYGAERYAESLSIYNKLISITLKDDFNNLCVYYNNMTQVYLRMGKRDMAVNCINTVINNLHNISDDFEALPQIYAELGKSYLMMADNDKSIKYLTIALKLSKDFKYYSVTKDILNELSKIKGNSNKLKLKDEFIILTENMGRSYDSLNHSLVFNIIQYYTRLGDVASINELCEYCKERKVG
MGSDKIHHHHHHMRSDVIKKGLERVPHRSLLKALGITDDEMRRPFIGIVSSWNEIIPGHVHLDKVVEAVKAGVRMAGGVPFVFPTIGICDGIAMDHRGMKFSLPSRELIADSIEIVASGFPFDGLVFVPNCDKITPGMMMAMGRLNIPSVLISGGPMLAGRYNGRDIDLITVFEAVGGYKVGKVDEETLKAIEDLACPGAGSCAGLFTANTMNSLAEALGIAPRGNGTVPAVHAKRLRMAKEAGMLVVELVKRDVKPRDIVTLDSFMNAVMVDLATGGSTNTVLHLKAIAESFGIDFDIKLFDELSRKIPHICNISPVGPYHIQDLDDAGGIYAVMKRLQENGLLKEDVMTIYLRKIGDLVREAKILNEDVIRPFDNPYHKEGGLGILFGNLAPEGAVAKLSGVPEKMMHHVGPAVVFEDGEEATKAILSGKIKKGDVVVIRYEGPKGGPGMREMLSPTSAIVGMGLAEDVALITDGRFSGGSHGAVIGHVSPEAAEGGPIGIVKDGDLIEIDFEKRTLNLLISDEEFERRMKEFTPLVKEVDSDYLRRYAFFVQSASKGAIFRKP
MGSDKIHHHHHHMRVCAEHHVINTATGPMGTRVYRPAGPGSYPAILFYSEIFQETAPISRMATVLAGHGFVVLVPEIFHELNPAGTVLGYDDMGKDKGNSDKATKPLESHDSDTAAMVDFVRRQPWCQGKIGAMGVCIGGHLAYRAAVNPDVAAAFCLYATDIHSGTIPSQPGNDSLSRTRDIRGELYMVFGKQDPHVPGEGRRLIQHNLEQHGVNHSWLEVNAEHAFMRDGDARHDPALALVMYQSAIALFQRTL
MGSDKIHHHHHHMRVIELEDLDHIREAIVILKGLEVEGANKPGEKLGFKKGKNLMSIFTCKEMDRFIRDVQERKNFSLETNAYFFELHSKRFVSLRYLPKKSLLFVNDLTEERTLSEAKLDFVTAVSHELFTPLSASKANVFLLKDIENDPEKLEILGKVERSLDRMETIIRQLKVLTMIQLRLYELKMEHIPVEEVVHMVLEELREKIESKKIKVNVFVDVETIETDRFVFHTILKNLVSNAVKYSYPDSVVEISITGERLSVKDQGIGIKEEEKSRIFERFYRGSEALKMAPGSGLGLSIVKHLCDTIGYRLEVNSQWLVGSEFIVHFK
MGSDKIHHHHHHMRVKHFELLTDEGKTFTHVDLYGKYTILFFFPKAGTSGCTREAVEFSRENFEKAQVVGISRDSVEALKRFKEKNDLKVTLLSDPEGILHEFFNVLENGKTVRSTFLIDRWGFVRKEWRRVKVEGHVQEVKEALDRLIEEDLSLNKHIEWRRARRALKKDRVPREELELLIKAAHLAPSCMNNQPWRFVVVDEEELLKKIHEALPGGNYWMKNAPALIAVHSKKDFDCALPDNRDYFLFDTGLAVGNLLVQATQMGLVAHPVAGYDPVKVKEILKIPEDHVLITLIAVGYLGDESELSEKHRELERSERVRKELSEIVRWNL
MGSDKIHHHHHHMRVLAAMSGGVDSAVAAARAVEAGHDVVGVHLALSRMPGTLRTGSRGCCTIEDSRDAWRACDVLGIPYYVWDFSERFKEDVVQDFIDEYAAGRTPNPCMRCNERIKFAALLEKAIALGFDAVCTGHYAKVITDADGNPELHRAADWAKDQSYVLGVLTHEQLKHSMFPLADTPSKAEVRAEAERRGLSVANKPDSHDICFIPDGDTAGWLAEKIEMTTGDIVDEAGTKVGEHPGANAFTVGQRRGLKLGTPAADGKPRFVLEIRPKENKVVVGPEALLAIDEIRGIKVSWAGLPIAEVATGDEFDCHAQVRAHGDPVPATARMERLTDDDGAERTNLVVTLATPLRGVAPGQTVVLYQGSRVLGQATIDTARSLQRAAL
MGSDKIHHHHHHMRVSSDDALFYRIEAFFRGRAYGPHRHDTYAVGITTAGIQSIRYRGELVHSSPGDTVVIHPDEIHDGRAGTVAGYCYRIVHLQPEALQQILGQTSLPFIKEGVSQNAQLYQAIWAMLREFDRPLEPLERTDLLFDLAMALQAAAGTAKAKHTGNIKAALIARDCIRSAPSQRIELDVLARESGRDRWSLSRDFRQFFGTSPSRYMTMRRLDIARRLMSNGTPLAECAVAVGFADQSHMSRQFVEAFGLTPTRWLTMLR
MGSDKIHHHHHHMRVSVRNLTKIFRVGSIFSLKKLVAIDNVSFEIGSGEIFSLAGESGCGKTTTAKILLGLEEPTNGEVLYDGIKLKDFVENEMHFLKKVQTVQQNPFSTFNPFRKVEDYLFKTVLRFKMANTKDEALRLIEEKLSVVGLNFDEIKGRYPSEFSGGQLQRISIARALLTNPSFLVADEPVSMIDASLRISIVNLFRDLKERFGISILYITHDLSTAYYVADKLAIMFRGSIVEMGRAQDILDTPFHPYTKLLKSSIPVPDPEYEWDENINLSSTEREEFFAKGCKFASRCPEVMSICRESVPPDFDVNGRVVKCWLYK
MGSDKIHHHHHHMRYAIYFSPAKDHPLTEAASRWLGRNAFSGTLHDDHDDYADLTEEPRRYGFHATLKAPFELAEKYSEAELLAAVEDFAANQSAFEIPRVVVGALGPFFALVPDRVYQPLQDFAAEVVDHFDRFRAPLSETDIARRRPQMLTESQRQNLSLWGYPHVMDDFRFHMTLTGRIDEEEQPAMQEILSTRFAEFVDQPLAISGLALFIEETRGAPFTVHRWHPLGQQPKKDANP
MGSDKIHHHHHHMRYLRADERCLICSLRQAENLLKKTITSPEKRWVIFREVFRIMSEMKWGMKPLEVNGEVHRFIMEYIKEEDPFKEEKRRSNDMAIKLVEMFRPEILNSPDPVYSAAKLAVSGNLIDLGIPGWSVDEIFEKLHEVYERPFDREDFEKFRNVLMNASTLFYVADNAGEIVFDKFFIEVLKMENPSLEVVVAVRGKPIINDATIEDAKYIGLEEIATVISSGVDEPGVMLDKASEEFRKAFFEFDVVISKGQGNFEGLYEEEKKNLFFLLTAKCDFVAEVLNVPLGGKVFISSSSL
MGSDKIHHHHHHMRYRKLSDYLKERYGERVQRIVIHGGFSCPNRDGTKGKGGCIYCDATGSGFTTLMRLPIREQVMEMKKKYEKRGIKKFIAYFQSFSNTYAPVEMLRERYEEALVDDSIVQLSVSTRPDLVPERVLDLFEEFKKRVDVSVELGLQTANYRTLKKINRGHTLAEFVDAAVRVKKRGIELVVHVILNLPWDDMEDVVETAKILSALDVDGVKLHSLYVVEGTKLAEMYKKGEVKICSLEEYIDRAITFLEYLSPNVVIHRLVADPPRKGTIFGNWGKSKIEIINMIEEELERRDTYQGKKFDYLNR

Source: the DeepSol protein solubility set
